Data published in patent publication US10815297B2, “Antagonists of IL17C for the treatment of inflammatory disorders” (MorphoSys AG, priority 2011, dated 2020).

Columns and labels:
[1] = tested on: BALB/c female mice, LPS-induced acute lung neutrophilia; assay: Intranasal instillation of LPS, mouse model of acute lung neutrophilia; type: in vivo; conditions: single treatment 5 mg/kg i.p. 24 hours before LPS instillation; BAL 24 hours after LPS
Description: Two independent studies were conducted with one negative mAb and two positive mAbs in the intranasal instillation of Lipopolysaccharide (LPS) mouse model of acute lung neutrophilia, a model which mimics some relevant aspects of COPD (Chronic Obstructive Pulmonary Disease). The effects were measured by Broncho Alveolar Lavage (BAL) inflammatory cell counting.
Several groups of mice were treated with different antibodies and Dexamethasone and compared to the mice subjected to LPS only.
BALB/c female mice from Harlan (France) were used in the study. Mice weight was around 20 g.
Mice were anesthetized by isoflurane inhalation. During the breathing, LPS was instilled intranasally. After 24 h, mice were anesthetized intra-peritoneally (IP) and Broncho Alveolar Lavage procedure was performed. Mice were anesthetized by injection of anaesthetic solution of 0.1 mL per 10 g of the mouse weight. The anaesthetic solution was composed of 18 ml 0.9% NaCl, 0.5 mL xylazine (5 mg/Kg) and 1.5 mL ketamine (75 mg/Kg).
The trachea was exposed through midline incision and canulated (with a mice catheter). BAL was performed twice using 1 mL of sterile PBS buffer. […] The cells were counted using a cell counter (Vet abc, France). […]
For all groups, BAL was performed 24 hours after LPS administration and cell counts were measured.
The results were analyzed using Student t-test. […]

[2] = tested on: Balb/c N mice, IMQ induced psoriasis; assay: Imiquimod (IMQ) psoriasis-like mouse model; type: in vivo; conditions: 10 mg/kg i.p., 3 days before and at D0
From the text: The pro-inflammatory function of IL17C in the skin was examined in a non-infectious cutaneous inflammation mouse model of psoriasis where topical TLR7-TLR8 agonist Imiquimod induces psoriatic skin lesions characterized by epidermal proliferation and leukocyte infiltration, which are dependent on pathogenic TH17 cytokines (Van der Fits et al., J of Immunol. 2009 May 1; 182(9):5836-45.). The role of IL17C in this particular model was recently documented (Ramirez-Carrozzi et al, Nat Immunol. 2011 12(12):1159-66) and a convincing genetic proof of the IL17C role in the disease model was provided with IL17C^−/− mice. […]
In order to induce a psoriatic-like response, a daily topical dose of 62.5 mg of Imiquimod cream on the shaved back and the right ear for 5 consecutive days (D0-D4), translating in a daily dose of 3.13 mg of the active compound. The control group was constituted with mice receiving the same quantity of Vaseline cream. […] Body weight was daily recorded. At necropsy and at the days indicated, the ears and the back skin thicknesses were measured using a micrometer (Mitutoyo). […] Spleen and thymus weight was measured.
Mice were randomly divided into equal groups (n=10). […] The control group was constituted with control mice receiving the same quantity of Vaseline. […]

B1: MOR12743: anti-mouse IL17C HuCAL antibody; CDRs SEQ ID NO: 31-36, VL 37, VH 38; human/mouse chimeric IgG2a (antibody, V domains shown)
VH: QVQLVQSGAEVKKPGASVKVSCKASGYTFTSNFIHWVRQAPGQGLEWMGWISPYNGDTNYAQKFQGRVTMTRDTSISTAYMELSRLRSEDTAVYYCARESVYYGSDYGYNGMDIWGQGTLVTVSS
VL: DIELTQPPSVSVSPGQTASITCSGDNLGEEYVSWYQQKPGQAPVLVIYDDTKRPSGIPERFSGSNSGNTATLTISGTQAEDEADYYCASWDLWSVEVFGGGTKLTVLGQ
modifications: mouse IgG2a constant regions; VH; VL
inhibition of the recruitment of inflammatory cells into the BALF [1]: inhibited significantly | effect on epidermal thickness induced by IMQ in the mouse ear skin (histology) [2]: significant
